Laboratory results: article PMC6528580, “Relative catalytic efficiencies and transcript levels of three D‐ and two L‐lactate dehydrogenases for optically pure D‐lactate production in Sporolactobacillus inulinus” (MicrobiologyOpen, 2018)

Substrate: CC(=O)C(=O)O
Assay: purified protein
Type: biochemical, Sporolactobacillus inulinus
Settings: 0.4 mM NADH, pyruvate 0.05-40 mM

B1: L-LDH2 (Sporolactobacillus inulinus CASD) (protein)
chain: MRKYAIIGLGHVGAAVAFQLVSRGIADELILIDTNEGLARAEQLDLQDMQGRIDTRTIIKINDYSELADTDILFITAGNILAYKEKQAQGNRWAEFEYTKDIVQDIAPKVKASGFHGVAIDTMNPCDAITQYFQENTGLSRQQVFATGTFLDTARMQKVVSDQFDCDPKNVSGYVYGEHGESQFTAWSTVRVNGLDITELAKERNLNLDDLEEAARRGGWEVYKGKGYTSWAISTCAVKLSQAVLSDAHAACICSCYSEKYGTYVGQPAIIGKNGIEEVLTLPLTTEEEAKFKHSADTIKEKFQTFEKQTN
notes: N-terminal His-tag (pET-28a) removed by enterokinase; E. coli BL21(DE3)
In the case of B1, the Km (pH 7.0, 40 °C) is reported as 6.8 ± 0.19 mM, the Vmax (pH 7.0, 40 °C) is reported as 1.9 µmol/min/mg and the kcat (pH 7.0, 40 °C) is reported as 2.3 ± 0.1 s⁻¹. The kcat/Km (pH 7.0, 40 °C) was 300 ± 100 M⁻¹ s⁻¹.

B2: D-LDH2 (Sporolactobacillus inulinus CASD) (protein)
chain: MAFKIIAYGVEPYEEHLYSELNKYGFELTLVNDLLTADNGDLAKGHDGVLLFVNCLADRANLEKFNDYGINYVFTRTAGFNHIDLQAAADLGIKVARVPAYSPNAIAELAVYLGTSLLRHTVYTTARTSKLNFTVTETNFSHEVHKIKVGIVGTGHIGCVEAELYKGLGAKLLGYDIFQSDFAKKLVEFKELDELLAESDIVSLHLPYFPGKNENFVGEDFIGKMKDGAILINTARGELVDEAAVAKAIKSGKLEGFGADVLTDEARFFGKDFSDGTEFPDATIKELIELYPKVLITPHVAAMTDVAVSNMISTSYDNFNAAIKGESLGRAEVELPEPAKK
notes: as for B1
B2 was tested, and the Km (pH 7.5, 30 °C) was 1.4 ± 0.09 mM, the Vmax (pH 7.5, 30 °C) was 38.1 µmol/min/mg and the kcat (pH 7.5, 30 °C) was 44.7 ± 0.3 s⁻¹. It also gave a kcat/Km (pH 7.5, 30 °C) of 32000 ± 2000 M⁻¹ s⁻¹.

B3: D-LDH1 (Sporolactobacillus inulinus CASD) (protein)
chain: MKLFMYGVQAHEKEIIRAWADAHAIDIETTADFLSEKTVDRAKDYDGICIQQPVPLGAAKLYATLKSYGIKQIATRTAGYDMIDLQEAEKNELIVTNVPAYSPYAVAELAVTQAMQLVRHVSQFQQRIAANDFRWDGLMSREIRSMTVGIVGTGRIGATAAQLFKGLGAKIIGFDQYPNDRLKDLIEYRSSLEDVLKEADIVSLHTPLFDSTRHMINARTLKLMKKSAYLINIARGALIDTEALIDALESGEIAGAALDTFENETVINKNLSGQSLNDPLLEKLIAMDQVLLTPHVGFFTETAIRNIVEGALNSVLEVLQTGTSKSRVKPAVTQ
notes: as for B1
With B3 the Km (pH 6.0, 35 °C) was 0.47 ± 0.04 mM, the Vmax (pH 6.0, 35 °C) was 62.7 µmol/min/mg and the kcat (pH 6.0, 35 °C) was 75.8 ± 0.3 s⁻¹. The kcat/Km (pH 6.0, 35 °C) was 161000 ± 6000 M⁻¹ s⁻¹.

B4: L-LDH1 (Sporolactobacillus inulinus CASD) (protein)
chain: MSETVRRVGVVGIGNVGKAAASAVLHENIADELYISDIDSERAKGEAWDFADSIELTPSRTRVLEVPLEGLAVCDVILVAVTERSQIPTQSRLELLKGTAAITYDIVPKLRKAGFKGTYVIATNPCDIITYLFYKLSGLPKNHVIGTGTALDSMRLRRQLSQVIGDVDPRSINAFMIGEHGDSQIAAWSQATVGGQPLDQFEEDNVDEFGPIDRDQVEDAARHFGWEIHTRKGNTQFGIGNALAFFAKSILNDARVVTAASVIQNGEYGQNDLAIGVPIILGRNGVERIIKFRLSEKEQEGFNGSAELIKGYIKQTLEEHEETTAN
notes: as for B1
In the case of B4, the Km (pH 7.0, 45 °C) is reported as 4.1 ± 0.12 mM, the Vmax (pH 7.0, 45 °C) is reported as 5.2 µmol/min/mg and the kcat (pH 7.0, 45 °C) is reported as 5.9 ± 0.1 s⁻¹. It also gave a kcat/Km (pH 7.0, 45 °C) of 1400 ± 100 M⁻¹ s⁻¹.

B5: D-LDH3 (Sporolactobacillus inulinus CASD) (protein)
chain: MKIIMFSVRDDEEAAIREWEKKTGVQVDINRLELDAETAQLTKGYDGIVIQQRSHISNPAVYETLQKNGLRQLTSRTAGYDMIDLEQASERGLVVTNVPAYSPNSVAELALTQTMRLIRNLPLFDARGAEQDFRWAGLMAREIRSLTVGIIGAGRIGGTVARLFKALGATVIANDIVERVELKDIVTYVSKEELLQAADVVTLHVPLMDSTTQLIDADALALMKNDAVLINASRGPVVDTDALIAALQNKQIAGAALDTLNGEEHFFNQDLCGKELPSEQLKVLRTLPNVLITPHIGFYTNKAVQNMVEISLNDVLAILKTGTSEHQLNKVAVEN
notes: N-terminal His-tag (pET-28a) removed by enterokinase; E. coli BL21(DE3); homodimer hypothesised from identical DLDH744
With B5 the Km (pH 5.5, 30 °C) was 3.1 ± 0.08 mM, the Vmax (pH 5.5, 30 °C) was 9.2 µmol/min/mg and the kcat (pH 5.5, 30 °C) was 10.7 ± 0.2 s⁻¹. For the same protein, the kcat/Km (pH 5.5, 30 °C) was 3500 ± 200 M⁻¹ s⁻¹.
